± gives the uncertainty stated by the source.
Assay: self-splicing fitness, log relative to wild type (ln ratio); higher = more splicing; Tetrahymena group I intron in knt gene, E. coli kanamycin selection, DiMSum; sequences stand for … in CUCUCU…GGAGGGAAAAGUUAUCAGGCAUGCACCUGGUAGCUAGUCUUUAAACCAAUAGAUUGCAUCGGUUUAAAAGGCAAGACCGUCAAAUUGCGGGAAAGGGGUCAACAGCCGUUCAGUACCAAGUCUCAGGGGAAACUUUGAGAUGGCCUUGCAAAGGGUAUGGUAAUAAGCUGACGGACAUGGUCCUAACCACGCAGCCAAGUCCUAAGUCAACAGAUCUUCUGUUGAUAUGGAUGCAGUUCACAGACUAAAUGUCGGUCGGGGAAGAUGUAUUCUUCUCAUAAGAUAUAGUCGGACCUCUCCUUAAUGGGAGCUAGCGGAUGAAGUGAUGCAACACUGGAGCCGCUGGGAACUAAUUUGUAUGCGAAAGUAUAUUGAUUAGUUUUGGAGUACUCGUGGUCG
How it was run: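 Pooled colonies went to amplicon sequencing on an Illumina HiSeq 2500 after six replicate transformations. The plates were LB agar with 100 μg/mL carbenicillin, 50 μM IPTG and 0.2% rhamnose, with or without 25 μg/mL kanamycin, incubated overnight at 37°C or 30°C. The E. coli BL21(DE3) library had all eight P1ex-region intron nucleotides randomised, the intron placed in the knt kanamycin-resistance gene on pET-22b(+). DiMSum fitness is the error-weighted combination of replicate fold changes, kanamycin against none, normalised to wild type.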

Row | Sequence | self-splicing fitness (ln) (30 °C) | self-splicing fitness (ln) (37 °C)
1 | GCGGAGCAAUAUUACGGUCC | -2.54 ± 0.39 | 
2 | GCGGAGCAAUAUUACGGUGG | -3.54 ± 0.35 | -2.27 ± 0.39
3 | GCGGAGCAAUAUUACGUAAC | -1.54 ± 0.34 | 
4 | GCGGAGCAAUAUUACGUAUC | -1.83 ± 0.33 | 
5 | GCGGAGCAAUAUUACGUAUG | -3.28 ± 0.31 | -2.58 ± 0.41
6 | GCGGAGCAAUAUUACGUCAA | -2.42 ± 0.37 | 
7 | GCGGAGCAAUAUUACGUCAG | -3.19 ± 0.31 | -2.38 ± 0.35
8 | GCGGAGCAAUAUUACGUCCU | -1.31 ± 0.25 | -0.651 ± 0.41
9 | GCGGAGCAAUAUUACGUCUU | -2.3 ± 0.22 | -0.899 ± 0.22
10 | GCGGAGCAAUAUUACGUUCG |  | -0.666 ± 0.37
11 | GCGGAGCAAUAUUACGUUGG |  | -3.01 ± 0.4
12 | GCGUAGCAAUAUUACGACAC | -0.714 ± 0.092 | -0.0138 ± 0.097
13 | GCGUAGCAAUAUUACGACGA | -0.712 ± 0.15 | -0.0139 ± 0.19
14 | GCGUAGCAAUAUUACGACGG | -3.73 ± 0.48 | -2.79 ± 0.43
15 | GCGUAGCAAUAUUACGAGCA | -1.28 ± 0.082 | -0.574 ± 0.094
16 | GCGUAGCAAUAUUACGAGCG | -0.887 ± 0.15 | -1.62 ± 0.17
17 | GCGUAGCAAUAUUACGAGGC |  | -1.53 ± 0.39
18 | GCGUAGCAAUAUUACGAGUC | -2.81 ± 0.22 | -2.17 ± 0.23
19 | GCGUAGCAAUAUUACGAUCG | -1.34 ± 0.12 | -0.204 ± 0.13
20 | GCGUAGCAAUAUUACGAUGC | -3.71 ± 0.32 | -1.39 ± 0.27
21 | GCGUAGCAAUAUUACGCCGU | -2.86 ± 0.26 | -3.17 ± 0.26
22 | GCGUAGCAAUAUUACGCGGG | -3.78 ± 0.24 | -2.75 ± 0.3
23 | GCGUAGCAAUAUUACGCGUG | -4.06 ± 0.28 | -2.71 ± 0.15

Row | Sequence | self-splicing fitness (ln) (30 °C) | self-splicing fitness (ln) (37 °C)
24 | GCGUAGCAAUAUUACGGACG | -3.14 ± 0.21 | -2.1 ± 0.22
25 | GCGUAGCAAUAUUACGGCAG | -3.83 ± 0.28 | -2.13 ± 0.39
26 | GCGUAGCAAUAUUACGGCGG | -2.79 ± 0.19 | -1.36 ± 0.23
27 | GCGUAGCAAUAUUACGGGGA | -2.23 ± 0.32 | -2.89 ± 0.35
28 | GCGUAGCAAUAUUACGGUGA | -1.73 ± 0.12 | -0.187 ± 0.12
29 | GCGUAGCAAUAUUACGGUUU | -1.03 ± 0.1 | -0.436 ± 0.13
30 | GCGUAGCAAUAUUACGUAUA | -2.15 ± 0.26 | -1.52 ± 0.21
31 | GCGUAGCAAUAUUACGUUAU | -3.72 ± 0.35 | -1.89 ± 0.18
32 | GCGUAGCAAUAUUACGUUGG | -2.62 ± 0.24 | -2.96 ± 0.32
33 | GCUAAGCAAUAUUACGACGG | -1.8 ± 0.11 | -1.49 ± 0.14
34 | GCUAAGCAAUAUUACGACUC | 0.21 ± 0.098 | 0.379 ± 0.14
35 | GCUAAGCAAUAUUACGAGCA | -1.72 ± 0.14 | -1.03 ± 0.13
36 | GCUAAGCAAUAUUACGAUGG | -0.808 ± 0.072 | -0.4 ± 0.098
37 | GCUAAGCAAUAUUACGCAAG |  | -1.46 ± 0.28
38 | GCUAAGCAAUAUUACGCAGC | -3.14 ± 0.4 | -2.62 ± 0.28
39 | GCUAAGCAAUAUUACGCCGC | -2.72 ± 0.48 | 
40 | GCUAAGCAAUAUUACGCCUC | -1.89 ± 0.16 | -0.286 ± 0.22
41 | GCUAAGCAAUAUUACGCGGU | -2.97 ± 0.27 | -2.72 ± 0.25
42 | GCUAAGCAAUAUUACGCGUC | -0.276 ± 0.14 | -2.47 ± 0.19
43 | GCUAAGCAAUAUUACGGCCC | -1.78 ± 0.18 | -0.371 ± 0.14
44 | GCUAAGCAAUAUUACGGCCG | -3.06 ± 0.25 | -2.9 ± 0.47
45 | GCUAAGCAAUAUUACGGGAA | -1.56 ± 0.12 | -1.16 ± 0.12

— the supplement of paper PMC7877785
